According to article PMC7774954 (PLoS ONE, 2020):
Where no end group is shown, it is not given here. The star is where a group is joined. Biotin = O=C1N[C@H]2[C@H](CS[C@H]2CCCCC(=O)*)N1; TTDS = NCCCOCCOCCOCCCNC(=O)CCC(=O)*

Key:
[1] = biological target: T1, PDZRN4-1, first PDZ domain of PDZRN4 (human, UniProt Q6ZMN7 224-314); assay: fluorescence polarisation; direct: N-terminally fluorescein-labelled PBM peptide (tracer) with increasing amounts of MBP-PDZ; 384-well plates; triplicate; direct binding model (ProFit); conditions: both partners purified
T1 sequence (looked up): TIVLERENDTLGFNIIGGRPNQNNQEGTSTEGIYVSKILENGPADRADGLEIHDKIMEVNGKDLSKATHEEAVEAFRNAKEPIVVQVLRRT

[2] = biological target: T2, PDZRN3-1, first PDZ domain of PDZRN3 (human, UniProt Q9UPQ7 249-339); assay: as above; conditions: both partners purified
T2 sequence (looked up): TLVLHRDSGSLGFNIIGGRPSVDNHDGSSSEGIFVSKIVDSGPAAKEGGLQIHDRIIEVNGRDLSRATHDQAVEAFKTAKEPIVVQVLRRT

[3] = biological target: DLG4-3, third PDZ domain of DLG4 (human, UniProt P78352 313-393); assay: as above; conditions: both partners purified
DLG4-3, third PDZ domain of DLG4, sequence (P78352 313-393): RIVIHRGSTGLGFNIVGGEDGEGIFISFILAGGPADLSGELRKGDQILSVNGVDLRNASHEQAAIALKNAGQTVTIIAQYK

[4] = biological target: T3, SCRIB-3, third PDZ domain of SCRIB (human, UniProt Q14160 1004-1093); assay: as above; conditions: both partners purified
T3 sequence (looked up): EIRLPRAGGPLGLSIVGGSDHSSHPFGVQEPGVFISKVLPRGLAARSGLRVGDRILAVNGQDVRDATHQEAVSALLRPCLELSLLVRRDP

[5] = biological target: MAGI1-2, second PDZ domain of MAGI1 (human, UniProt Q96QZ7 472-554); assay: as above; conditions: both partners purified
MAGI1-2, second PDZ domain of MAGI1, sequence (Q96QZ7 472-554): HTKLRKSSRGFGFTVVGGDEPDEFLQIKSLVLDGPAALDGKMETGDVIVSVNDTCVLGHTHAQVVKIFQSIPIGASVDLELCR

[6] = biological target: T4, NHERF3-1, first PDZ domain of NHERF3 (human, UniProt Q5T2W1 9-90); assay: as above; conditions: both partners purified
T4 sequence (looked up): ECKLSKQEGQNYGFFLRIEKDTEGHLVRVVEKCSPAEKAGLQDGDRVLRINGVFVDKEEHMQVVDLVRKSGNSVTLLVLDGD

[7] = biological target: T5, MAGI2-2, second PDZ domain of MAGI2 (human, UniProt Q86UL8 426-510); assay: as above; conditions: both partners purified
T5 construct: not shown: His6, N-terminal, kept; MBP, N-terminal, kept
T5 sequence (Q86UL8 426-510): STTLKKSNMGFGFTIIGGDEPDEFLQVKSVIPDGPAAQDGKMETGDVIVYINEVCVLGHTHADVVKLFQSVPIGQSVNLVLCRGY

SYNJ2BP PDZ domain = biological target: T6, SYNJ2BP PDZ domain (human, UniProt P57105 13-100); assay: as above; conditions: both partners purified
T6 sequence (looked up): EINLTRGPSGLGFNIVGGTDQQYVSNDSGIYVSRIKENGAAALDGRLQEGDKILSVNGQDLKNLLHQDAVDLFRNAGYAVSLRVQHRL

PTPN13-2 = biological target: T7, PTPN13-2 (human, UniProt Q12923 1368-1452); assay: holdup assay; biotinylated PBM peptide saturating streptavidin resin (biotin resin as reference); tag-PDZ at 4 uM in crude E. coli lysate, 15 min, filtration, free tag-PDZ by capillary electrophoresis; singlicate; BI cut-off 0.20; BI converted into KD with the peptide concentration back-calculated from FP; conditions: one partner purified
T7 construct: PDZ domain number 2 of human PTPN13; also called PTPN13 PDZ dom 2; source: E. coli, in crude cell lysate; not shown: His, N-terminal, kept
T7 sequence (looked up): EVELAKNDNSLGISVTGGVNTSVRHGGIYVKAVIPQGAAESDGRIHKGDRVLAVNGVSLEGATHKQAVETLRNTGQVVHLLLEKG

NHERF2-1 = biological target: T8, NHERF2-1 (human, UniProt Q15599 11-90); assay: as above; conditions: one partner purified
T8 construct: PDZ domain number 1 of human NHERF2; also called NHERF2 PDZ dom 1; source: E. coli, in crude cell lysate; not shown: His, N-terminal, kept
T8 sequence (Q15599 11-90): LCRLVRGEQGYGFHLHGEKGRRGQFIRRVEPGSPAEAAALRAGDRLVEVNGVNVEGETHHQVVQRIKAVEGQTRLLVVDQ

PARD3-3 = biological target: T9, PARD3-3 (human, UniProt Q8TEW0 590-677); assay: as above; conditions: one partner purified
T9 construct: the text says PARD3-1; also called PARD3 PDZ dom 3; source: E. coli, in crude cell lysate; not shown: His, N-terminal, kept
T9 sequence (Q8TEW0 590-677): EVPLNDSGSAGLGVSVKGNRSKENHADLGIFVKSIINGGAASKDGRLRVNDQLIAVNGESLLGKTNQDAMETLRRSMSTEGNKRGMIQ

MAGI2-3 = biological target: T10, MAGI2-3 (human, UniProt Q86UL8 605-683); assay: as above; conditions: one partner purified
T10 construct: PDZ domain number 3 of human MAGI2; also called MAGI2 PDZ dom 3; source: E. coli, in crude cell lysate; not shown: His, N-terminal, kept
T10 sequence (Q86UL8 605-683): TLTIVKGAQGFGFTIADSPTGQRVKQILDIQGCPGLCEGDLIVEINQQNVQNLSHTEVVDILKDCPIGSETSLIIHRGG

MAGI2-2 = biological target: T11, MAGI2-2 (human, UniProt Q86UL8 426-510); assay: as above; conditions: one partner purified
T11 construct: PDZ domain number 2 of human MAGI2; also called MAGI2 PDZ dom 2; source: E. coli, in crude cell lysate; not shown: His, N-terminal, kept
T11 sequence (Q86UL8 426-510): as the sequence (Q86UL8 426-510) above

MAGI3-2 = biological target: T12, MAGI3-2 (human, UniProt Q5TCQ9 410-492); assay: as above; conditions: one partner purified
T12 construct: PDZ domain number 2 of human MAGI3; also called MAGI3 PDZ dom 2; source: E. coli, in crude cell lysate; not shown: His, N-terminal, kept
T12 sequence (Q5TCQ9 410-492): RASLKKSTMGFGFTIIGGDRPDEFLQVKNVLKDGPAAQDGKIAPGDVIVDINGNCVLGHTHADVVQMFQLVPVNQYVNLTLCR

NHERF2-2 = biological target: T13, NHERF2-2 (human, UniProt Q15599 150-230); assay: as above; conditions: one partner purified
T13 construct: PDZ domain number 2 of human NHERF2; also called NHERF2 PDZ dom 2; source: E. coli, in crude cell lysate; not shown: His, N-terminal, kept
T13 sequence (Q15599 150-230): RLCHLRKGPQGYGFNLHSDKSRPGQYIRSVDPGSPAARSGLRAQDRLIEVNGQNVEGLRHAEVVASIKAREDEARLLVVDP

DLG1-2 = biological target: T14, DLG1-2 (human, UniProt Q12959 319-405); assay: as above; conditions: one partner purified
T14 construct: PDZ domain number 2 of human DLG1; also called DLG1 PDZ dom 2; source: E. coli, in crude cell lysate; not shown: His, N-terminal, kept

MAGI1-3 = biological target: T15, MAGI1-3 (human, UniProt Q96QZ7 643-721); assay: as above; conditions: one partner purified
T15 construct: PDZ domain number 3 of human MAGI1; also called MAGI1 PDZ dom 3; source: E. coli, in crude cell lysate; not shown: His, N-terminal, kept
T15 sequence (Q96QZ7 643-721): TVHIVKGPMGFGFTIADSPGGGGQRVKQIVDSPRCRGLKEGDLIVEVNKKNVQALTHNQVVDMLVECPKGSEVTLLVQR

PTPN13-4 = biological target: T16, PTPN13-4 (human, UniProt Q12923 1788-1868); assay: as above; conditions: one partner purified
T16 construct: PDZ domain number 4 of human PTPN13; also called PTPN13 PDZ dom 4; fourth PDZ domain of PTPN13; source: E. coli, in crude cell lysate; not shown: His, N-terminal, kept
T16 sequence (looked up): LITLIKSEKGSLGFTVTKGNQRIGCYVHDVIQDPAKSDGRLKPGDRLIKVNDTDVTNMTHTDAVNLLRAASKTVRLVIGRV

B1: f16E6, fluorescein-labelled HPV16 E6 PBM peptide (peptide)
peptide: fluorescein-RTRRETQL
notes: source: synthetic peptide
For B1, which Kd [1] is on record?
Its Kd is 2.93 µM.

What about the Kd [2] of the same binder?
The Kd was 1.08 µM.

What about the Kd [3] of the same binder?
The Kd was 7.27 µM.

And the Kd [4]?
Its Kd is 1.47 µM.

What about the Kd [5] of the same binder?
The Kd was 0.5 µM.

What about the Kd [6] of the same binder?
The Kd was 2.34 µM.

What about the Kd [7] of the same binder?
The Kd was 2.77 µM.

What about the Kd (SYNJ2BP PDZ domain) of the same binder?
Its Kd is 2.28 µM.

B2: PTEN_13 (peptide, UniProt P60484 391-403, looked up)
peptide: {Biotin-TTDS}-PFDEDQHTQITKV
notes: also called 13-mer PTEN peptide; extended wild-type peptide; source: synthetic peptide, bought: JPT Innovative Peptide Solutions (70%-80% purity)
Which Kd (PTPN13-2) does the source give for B2 here?
The Kd was 16 µM.

And the Kd (NHERF2-1)?
Its Kd is 134 µM.

What about the Kd (PARD3-3) of the same binder?
Its Kd is 96 µM.

What about the Kd (MAGI2-3) of the same binder?
Its Kd is 30 µM.

What about the Kd (MAGI2-2) of the same binder?
The Kd was 149 µM.

What about the Kd (MAGI3-2) of the same binder?
Its Kd is 21 µM.

And the Kd (NHERF2-2)?
Its Kd is 125 µM.

And the Kd (DLG1-2)?
The Kd was 81 µM.

And the Kd (MAGI1-3)?
Its Kd is 10 µM.

What about the Kd (PTPN13-4) of the same binder?
Its Kd is 36 µM.
